{
  "source": "paper PMC6715741",
  "about": "“Abundant neuroprotective chaperone Lipocalin-type prostaglandin D synthase (L-PGDS) disassembles the Amyloid-β fibrils” (Scientific Reports, 2019)",
  "binders": {"B1": {"name": "Human wild-type Lipocalin-type prostaglandin D synthase (L-PGDS) (natural protein, UniProt P41222 23-190, looked up)", "chain": "APEAQVSVQPNFQQDKFLGRWFSAGLASNSSWLREKKAALSMCKSVVAPATDGGLNLTSTFLRKNQCETRTMLLQPAGSLGSYSYRSPHWGSTYSVSVVETDYDQYALLYSQGSKGPGEDFRMATLYSRTQTPRAELKEKFTAFCKAQGFTEDTIVFLPQTDKCMTEQ", "modifications": "uniformly 15N labeled in the NMR titration with unlabeled Aβ40; unlabeled elsewhere"}},
  "target": "Amyloid β (1–40) peptide, unlabeled, monomeric (UniProt P05067 672-711)",
  "sequence (P05067 672-711)": "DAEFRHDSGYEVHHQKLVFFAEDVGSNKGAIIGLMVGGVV",
  "assay": "cell-based or functional assay",
  "data": [
    {"binder": "B1", "values": [
      {"measurement": "IC50 of WT-L-PGDS for Aβ40 aggregation (ThT end-point fluorescence, 50 µM Aβ40, 37 °C)", "value": 0.98, "unit": "µM"},
      {"measurement": "fold reduction of the primary nucleation rate constant of Aβ40 aggregation with L-PGDS (ThT curves fitted with Amylofit)", "value": 14, "unit": "fold"},
      {"measurement": "fold reduction of the secondary nucleation rate constant of Aβ40 aggregation with L-PGDS (ThT curves fitted with Amylofit)", "value": 6, "unit": "fold"}
    ]}
  ]
}
